Values of other authors, collected in patent US12714740B2, “Compositions comprising a tweak ligand and methods of using same” (Children's Hospital Medical Center, priority 2019, dated 2026).

Biological target: T1, Fn14 (Homo sapiens, UniProt Q9NP84)
T1 sequence (Q9NP84 28-129): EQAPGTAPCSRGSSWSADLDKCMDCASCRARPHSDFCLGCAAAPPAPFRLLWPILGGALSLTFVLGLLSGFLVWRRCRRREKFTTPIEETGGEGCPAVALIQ
Settings: natural ligand binding to Fn14; high affinity; read-out: interaction affinity constant (Kd)

- Kd: 0.8 to 2.4 nM
B1: TWEAK: natural ligand for Fn14; 14 kDa protein, TNF superfamily member 12 (protein, UniProt O43508 94-249, looked up)
Tumor necrosis factor ligand …: SAPKGRKTRARRAIAAHYEVHPRPGQDGAQAGVDGTVSGWEEARINSSSPLRYNRQIGEFIVTRAGLYYLYCQVHFDEGKAVYLKLDLLVDGVLALRCLEEFSATAASSLGPQLRLCQVSGLLALRPGSSLRIRTLPWAHLKAAPFLTYFGLFQVH
